Results taken from patent US12616740B2, “Methods of using a GIP/GLP1 co-agonist for therapy” (ELI LILLY AND COMPANY, priority 2018, dated 2026).

Assay: NCT03311724: nausea, vomiting and diarrhea, new events per interval
Type: in vivo, human
From the text: This is a 12-week treatment with a 1 week screening (Visit 1) followed by a 1 week lead-in (Visit 2), then 12 weeks of treatment (Visits 3-10, including telephone visits), then followed by 4-week safety follow-up. It is a Phase 2 study designed to examine the efficacy and tolerability of subcutaneously once-weekly tirzepatide compared with placebo in patients with type 2 diabetes who have inadequate glycemic control with diet and exercise alone or with a stable dose of metformin. The study was designed per below and conducted to refine the escalation scheme.

tirzepatide [LY]
Nausea Vomiting and Diarrhea: m, number of patients who experienced new event during interval (LY12 mg Group 3 (tirzepatide 4 mg × 4, 8 mg × 4, 12 mg × 4 once weekly), N = 29, T/Wk 8): m = 4; | Nausea Vomiting and Diarrhea: m, number of patients who experienced new event during interval (LY12 mg Group 3 (tirzepatide 4 mg × 4, 8 mg × 4, 12 mg × 4 once weekly), N = 29, T/Wk 9): m = 1; | Nausea Vomiting and Diarrhea: m, number of patients who experienced new event during interval (LY12 mg Group 3 (tirzepatide 4 mg × 4, 8 mg × 4, 12 mg × 4 once weekly), N = 29, T/Wk 10): m = 1; | Nausea Vomiting and Diarrhea: m, number of patients who experienced new event during interval (LY12 mg Group 3 (tirzepatide 4 mg × 4, 8 mg × 4, 12 mg × 4 once weekly), N = 29, T/Wk 11): m = 0; | Nausea Vomiting and Diarrhea: m, number of patients who experienced new event during interval (LY12 mg Group 3 (tirzepatide 4 mg × 4, 8 mg × 4, 12 mg × 4 once weekly), N = 29, T/Wk 12): m = 1; | Nausea Vomiting and Diarrhea: m, number of patients who experienced new event during interval (LY15 mg-Group 1 (tirzepatide 2.5 mg × 2, 5 mg × 2, 10 mg × 4, 15 mg × 4 once weekly), N = 28, Follow-up): m = 0; | Nausea Vomiting and Diarrhea: m, number of patients who experienced new event during interval (LY15 mg-Group 1 (tirzepatide 2.5 mg × 2, 5 mg × 2, 10 mg × 4, 15 mg × 4 once weekly), N = 28, Overall): m = 16; | Nausea Vomiting and Diarrhea: m, number of patients who experienced new event during interval (LY15 mg-Group 1 (tirzepatide 2.5 mg × 2, 5 mg × 2, 10 mg × 4, 15 mg × 4 once weekly), N = 28, T/Wk 0): m = 6; | Nausea Vomiting and Diarrhea: m, number of patients who experienced new event during interval (LY15 mg-Group 1 (tirzepatide 2.5 mg × 2, 5 mg × 2, 10 mg × 4, 15 mg × 4 once weekly), N = 28, T/Wk 1): m = 3; | Nausea Vomiting and Diarrhea: m, number of patients who experienced new event during interval (LY15 mg-Group 1 (tirzepatide 2.5 mg × 2, 5 mg × 2, 10 mg × 4, 15 mg × 4 once weekly), N = 28, T/Wk 2): m = 2; | Nausea Vomiting and Diarrhea: m, number of patients who experienced new event during interval (LY15 mg-Group 1 (tirzepatide 2.5 mg × 2, 5 mg × 2, 10 mg × 4, 15 mg × 4 once weekly), N = 28, T/Wk 3): m = 1; | Nausea Vomiting and Diarrhea: m, number of patients who experienced new event during interval (LY15 mg-Group 1 (tirzepatide 2.5 mg × 2, 5 mg × 2, 10 mg × 4, 15 mg × 4 once weekly), N = 28, T/Wk 4): m = 5; | Nausea Vomiting and Diarrhea: m, number of patients who experienced new event during interval (LY15 mg-Group 1 (tirzepatide 2.5 mg × 2, 5 mg × 2, 10 mg × 4, 15 mg × 4 once weekly), N = 28, T/Wk 5): m = 6; | Nausea Vomiting and Diarrhea: m, number of patients who experienced new event during interval (LY15 mg-Group 1 (tirzepatide 2.5 mg × 2, 5 mg × 2, 10 mg × 4, 15 mg × 4 once weekly), N = 28, T/Wk 6): m = 2; | Nausea Vomiting and Diarrhea: m, number of patients who experienced new event during interval (LY15 mg-Group 1 (tirzepatide 2.5 mg × 2, 5 mg × 2, 10 mg × 4, 15 mg × 4 once weekly), N = 28, T/Wk 7): m = 0; | Nausea Vomiting and Diarrhea: m, number of patients who experienced new event during interval (LY15 mg-Group 1 (tirzepatide 2.5 mg × 2, 5 mg × 2, 10 mg × 4, 15 mg × 4 once weekly), N = 28, T/Wk 8): m = 4; | Nausea Vomiting and Diarrhea: m, number of patients who experienced new event during interval (LY15 mg-Group 1 (tirzepatide 2.5 mg × 2, 5 mg × 2, 10 mg × 4, 15 mg × 4 once weekly), N = 28, T/Wk 9): m = 0; | Nausea Vomiting and Diarrhea: m, number of patients who experienced new event during interval (LY15 mg-Group 1 (tirzepatide 2.5 mg × 2, 5 mg × 2, 10 mg × 4, 15 mg × 4 once weekly), N = 28, T/Wk 10): m = 3; | Nausea Vomiting and Diarrhea: m, number of patients who experienced new event during interval (LY15 mg-Group 1 (tirzepatide 2.5 mg × 2, 5 mg × 2, 10 mg × 4, 15 mg × 4 once weekly), N = 28, T/Wk 11): m = 2; | Nausea Vomiting and Diarrhea: m, number of patients who experienced new event during interval (LY15 mg-Group 1 (tirzepatide 2.5 mg × 2, 5 mg × 2, 10 mg × 4, 15 mg × 4 once weekly), N = 28, T/Wk 12): m = 0; | Nausea Vomiting and Diarrhea: m, number of patients who experienced new event during interval (LY15 mg-Group 2 (tirzepatide 2.5 mg × 4, 7.5 mg × 4, 15 mg × 4 once weekly), N = 28, Follow-up): m = 0; | Nausea Vomiting and Diarrhea: m, number of patients who experienced new event during interval (LY15 mg-Group 2 (tirzepatide 2.5 mg × 4, 7.5 mg × 4, 15 mg × 4 once weekly), N = 28, Overall): m = 13; | Nausea Vomiting and Diarrhea: m, number of patients who experienced new event during interval (LY15 mg-Group 2 (tirzepatide 2.5 mg × 4, 7.5 mg × 4, 15 mg × 4 once weekly), N = 28, T/Wk 0): m = 4; | Nausea Vomiting and Diarrhea: m, number of patients who experienced new event during interval (LY15 mg-Group 2 (tirzepatide 2.5 mg × 4, 7.5 mg × 4, 15 mg × 4 once weekly), N = 28, T/Wk 1): m = 4; | Nausea Vomiting and Diarrhea: m, number of patients who experienced new event during interval (LY15 mg-Group 2 (tirzepatide 2.5 mg × 4, 7.5 mg × 4, 15 mg × 4 once weekly), N = 28, T/Wk 2): m = 2; | Nausea Vomiting and Diarrhea: m, number of patients who experienced new event during interval (LY15 mg-Group 2 (tirzepatide 2.5 mg × 4, 7.5 mg × 4, 15 mg × 4 once weekly), N = 28, T/Wk 3): m = 3; | Nausea Vomiting and Diarrhea: m, number of patients who experienced new event during interval (LY15 mg-Group 2 (tirzepatide 2.5 mg × 4, 7.5 mg × 4, 15 mg × 4 once weekly), N = 28, T/Wk 4): m = 6; | Nausea Vomiting and Diarrhea: m, number of patients who experienced new event during interval (LY15 mg-Group 2 (tirzepatide 2.5 mg × 4, 7.5 mg × 4, 15 mg × 4 once weekly), N = 28, T/Wk 5): m = 2; | Nausea Vomiting and Diarrhea: m, number of patients who experienced new event during interval (LY15 mg-Group 2 (tirzepatide 2.5 mg × 4, 7.5 mg × 4, 15 mg × 4 once weekly), N = 28, T/Wk 6): m = 3; | Nausea Vomiting and Diarrhea: m, number of patients who experienced new event during interval (LY15 mg-Group 2 (tirzepatide 2.5 mg × 4, 7.5 mg × 4, 15 mg × 4 once weekly), N = 28, T/Wk 7): m = 2; | Nausea Vomiting and Diarrhea: m, number of patients who experienced new event during interval (LY15 mg-Group 2 (tirzepatide 2.5 mg × 4, 7.5 mg × 4, 15 mg × 4 once weekly), N = 28, T/Wk 8): m = 5; | Nausea Vomiting and Diarrhea: m, number of patients who experienced new event during interval (LY15 mg-Group 2 (tirzepatide 2.5 mg × 4, 7.5 mg × 4, 15 mg × 4 once weekly), N = 28, T/Wk 9): m = 2; | Nausea Vomiting and Diarrhea: m, number of patients who experienced new event during interval (LY15 mg-Group 2 (tirzepatide 2.5 mg × 4, 7.5 mg × 4, 15 mg × 4 once weekly), N = 28, T/Wk 10): m = 0; | Nausea Vomiting and Diarrhea: m, number of patients who experienced new event during interval (LY15 mg-Group 2 (tirzepatide 2.5 mg × 4, 7.5 mg × 4, 15 mg × 4 once weekly), N = 28, T/Wk 11): m = 3; | Nausea Vomiting and Diarrhea: m, number of patients who experienced new event during interval (LY15 mg-Group 2 (tirzepatide 2.5 mg × 4, 7.5 mg × 4, 15 mg × 4 once weekly), N = 28, T/Wk 12): m = 0;
